Measured values from patent US20120114755A1, “METHODS AND MATERIALS FOR TISSUE REPAIR” (MAYO FOUNDATION FOR MEDICAL EDUCATION AND RESEARCH, priority 2009, published 2012).
Ends that are not written are not given here.

B1: GDF-5: Recombinant human GDF-5 (MBL, Woburn, Mass.) (protein, UniProt P43026 382-501, looked up)
Growth/differentiation factor …: APLATRQGKRPSKNLKARCSRKALHVNFKDMGWDDWIIAPLEYEAFHCEGLCEFPLRSHLEPTNHAVIQTLMNSMDPESTPPTCCVPTRLSPISILFIDSANNVVYKQYEDMVVESCGCR

Experiments:
FDP tendons = assay: In vitro tissue culture tendon healing model, gel patch with BMSC and/or Substance P: biomechanical testing; assay type: cell-based, dogs; conditions: zone III tendon groups, Substance P 10^−9, 2 weeks and 4 weeks
Procedure: Mixed-breed dogs being euthanized for other IACUC approved studies were used to harvest bone marrow from which bone marrow stromal cells (BMSCs) were cultured. The FDP tendons were harvested from dogs also being euthanized for other IACUC approved studies and these tendons were transected at similar levels, repaired with a single suture and incubated in tissue culture medium. Six repair groups was studied: (1) tendons ends opposed with two single loop sutures of 6/0 nylon (Ethicon, Somerville N.J.); (2) tendons repaired as in group 1 with the interposition of a collagen gel scaffold to the repair site (positive control group); (3) tendons repaired as in group 1 with the interposition of a BMSC-seeded collagen gel scaffold to the repair site; (4) tendons repaired as in group 1, with the interposition of a BMSC-seeded collagen gel scaffold to the repair site and addition of Substance P; (5) tendons repaired as in group 1, with the interposition of a BMSC-seeded collagen gel scaffold to the repair site and addition of GDF-5; and (6) tendons repaired as in group 1, with the interposition of a BMSC-seeded collagen gel scaffold to the repair site and addition of SP and GDF-5. […]
Confluent plates of BMSC were washed twice with sterile PBS and then trypsinized. The cells were counted with a hemocytometer and centrifuged to remove the media, forming a cell pellet with a known number of cells. […]

BMSCs [1] = assay: MTT cell proliferation assay of BMSCs with rhGDF-5; assay type: cell-based, dogs; conditions: day 10 of cell culture, 100 ng/mL rhGDF-5
Procedure: (§1) Immediately after euthanasia, 8.0 mL of bone marrow was aspirated from each tibia using a 15 mL syringe containing 2.0 mL of heparin solution. Heparin was removed and the bone marrow cells from one dog were divided into three 100-mm dishes in 10 mL of standard medium, which consists of minimal essential medium (MEM) with Earle's salts (Gibco, Grand Island, N.Y.), 10% fetal calf serum and 1% antibiotics (Antibiotic-Antimycotic, Gibco). The bone marrow cells were incubated at 37° C. with 5% CO2 and 95% air at 100% humidity. After 3 days, the medium containing floating cells was removed and new medium was added to the remaining adherent cells. These adherent cells were considered to be BMSCs. The medium was changed every 3 days. After the BMSCs formed colonies, they were treated with EDTA-trypsin to produce a cell suspension and centrifuged at 1500 rpm for 5 minutes to remove the EDTA-trypsin solution. The concentrated cell suspension was gathered in one tube and seeded in new dishes. Recombinant human GDF-5 (MBL, Woburn, Mass.) was added to the culture medium at a concentration of 100 ng/mL and culture continued for and additional 10 days.
Quantification of cell proliferation and viability was measured using Cell Proliferation Kit I (Roche, Basel, Switzerland). […] The absorbance was measured using Spectra Max Plus (Molecular Devises, Sunnyvale, Calif.). […]

BMSCs [2] = assay: Quantitative RT-PCR of BMSCs cultured with GDF-5; assay type: cell-based, canine
Procedure: as §1
Total RNA was extracted from culture cells using RNeasy Micro kit (Qiagen, Valencia, Calif.), according to the manufacturer's recommendations. The RNA concentration was determined using a NanoDrop (Thermo scientific, Waltham, Mass.). RNA was reverse transcribed into single-stranded cDNA with an anchored-oligo(dT) primer using Transcriptor First Strand cDNA Synthesis Kit (Roche). The reverse transcriptase was inactivated by heating to 85° C. for 5 minutes. The expression of tenomodulin (a marker of tenocyte differentiation), collagen type I and collagen type III was quantified with LightCycler 480 SYBR Green I Master kit (Roche) in a LightCycler 480 instrument (Roche). HPRT served as the reference gene. Five samples were measured in each group.

| Molecule | maximum force compared with cell only control (FDP tendons) | proliferation of BMSCs (MTT) compared with BMSCs without GDF5 stimulation (BMSCs [1]) | collagen type I mRNA expression, treated vs untreated cells (BMSCs [2]; 100 ng/mL) | collagen type III mRNA expression, treated vs untreated cells (BMSCs [2]; 100 ng/mL) | expression of tenomodulin mRNA compared with untreated cells (BMSCs [2]; day 10, 100 ng/mL) |
| --- | --- | --- | --- | --- | --- |
| Substance P: neuropeptide, substance P (Sigma) (RPKPQQFFGLM-NH2; ends and bridges not checked; UniProt P20366 58-68, looked up) | significantly higher |  |  |  |  |
| B1 |  | significantly increased | no significant difference | no significant difference | increased |
